According to article PMC11019746 (ACS Pharmacology & Translational Science, 2024):
Read-outs that look alike come from different tables or passages of the source. Where no end group is shown, it is not given here.

T1: hY5R (Homo sapiens, UniProt Q15761)
T1 construct: expressed in transfected cells; host or cells: HEC-1B (human endometrial cancer)
T1 sequence (Q15761 1-445): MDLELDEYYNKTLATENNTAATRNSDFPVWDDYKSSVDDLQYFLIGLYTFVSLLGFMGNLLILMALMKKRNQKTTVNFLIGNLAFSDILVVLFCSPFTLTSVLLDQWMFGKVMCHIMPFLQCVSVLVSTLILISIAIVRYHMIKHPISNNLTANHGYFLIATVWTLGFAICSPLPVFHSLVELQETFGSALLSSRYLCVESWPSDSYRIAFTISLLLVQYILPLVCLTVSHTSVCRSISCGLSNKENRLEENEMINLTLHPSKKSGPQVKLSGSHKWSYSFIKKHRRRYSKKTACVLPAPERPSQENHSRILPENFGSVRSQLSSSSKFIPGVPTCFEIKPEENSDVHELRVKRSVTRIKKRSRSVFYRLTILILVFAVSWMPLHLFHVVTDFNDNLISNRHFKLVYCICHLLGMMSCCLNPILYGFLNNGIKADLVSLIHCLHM

T2: hY1R (Homo sapiens, UniProt P25929)
T2 construct: host or cells: SK-N-MC neuroblastoma cells
T2 sequence (P25929 1-384): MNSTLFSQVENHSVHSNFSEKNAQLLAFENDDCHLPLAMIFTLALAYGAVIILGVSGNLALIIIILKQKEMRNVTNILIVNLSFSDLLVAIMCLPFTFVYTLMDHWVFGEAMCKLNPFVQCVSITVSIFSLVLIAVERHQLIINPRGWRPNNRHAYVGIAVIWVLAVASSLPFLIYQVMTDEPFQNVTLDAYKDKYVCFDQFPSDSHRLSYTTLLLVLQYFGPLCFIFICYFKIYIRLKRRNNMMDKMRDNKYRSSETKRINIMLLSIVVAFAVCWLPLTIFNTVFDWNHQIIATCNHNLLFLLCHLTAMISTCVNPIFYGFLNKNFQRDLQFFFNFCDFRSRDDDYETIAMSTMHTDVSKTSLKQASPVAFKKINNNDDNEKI

T3: hY2R (Homo sapiens, UniProt P49146)
T3 construct: host or cells: CHO
T3 sequence (P49146 1-381): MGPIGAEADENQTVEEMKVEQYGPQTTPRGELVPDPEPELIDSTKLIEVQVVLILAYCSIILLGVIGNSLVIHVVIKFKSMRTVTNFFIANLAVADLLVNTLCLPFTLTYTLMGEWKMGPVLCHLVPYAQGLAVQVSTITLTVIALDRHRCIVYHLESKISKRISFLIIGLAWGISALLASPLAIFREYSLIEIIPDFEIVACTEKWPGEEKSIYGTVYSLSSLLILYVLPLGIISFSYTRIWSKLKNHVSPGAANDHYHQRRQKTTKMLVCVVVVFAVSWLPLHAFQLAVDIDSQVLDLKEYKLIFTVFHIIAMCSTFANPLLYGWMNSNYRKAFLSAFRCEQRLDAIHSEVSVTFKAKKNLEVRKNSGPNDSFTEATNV

T4: human neuropeptide Y Y2 receptor (human, UniProt P49146 1-381)
T4 construct: also called hY2R; source: CHO-hY2R cells (from PerkinElmer), intact cells
T4 sequence (looked up): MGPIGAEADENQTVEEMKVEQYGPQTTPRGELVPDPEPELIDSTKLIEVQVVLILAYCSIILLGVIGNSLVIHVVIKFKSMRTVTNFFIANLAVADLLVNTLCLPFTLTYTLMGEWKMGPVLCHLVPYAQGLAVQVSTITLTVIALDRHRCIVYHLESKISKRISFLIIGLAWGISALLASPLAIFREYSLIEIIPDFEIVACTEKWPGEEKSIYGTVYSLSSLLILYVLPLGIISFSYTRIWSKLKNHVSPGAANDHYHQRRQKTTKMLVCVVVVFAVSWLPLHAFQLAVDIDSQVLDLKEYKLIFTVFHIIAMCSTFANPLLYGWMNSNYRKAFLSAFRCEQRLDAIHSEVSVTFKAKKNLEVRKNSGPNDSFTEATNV


Experiments:
hY5R = molecular target: T1, hY5R; assay: Y5R radioligand competition binding, whole HEC-1B-hY5R cells, [3H]propionyl-pNPY; conditions: [3H]propionyl-pNPY c = 5 nM
Protocol: (§1) All radioligand binding assays were performed at intact Y receptor expressing cells at 23 ± 2 °C.
(logarithmic form in the case of pKi values).

hY4R [1] = molecular target: T5, hY4R (Homo sapiens, UniProt P50391); assay: Y4R Ca2+ aequorin assay (CHO-hY4R-Gqi5-mtAEQ cells); format: cell-based; parameters: expressed in transfected cells; host or cells: CHO (co-expressing Gqi5 and mitochondrially targeted aequorin); conditions: for EC50: CHO-hY4R-Gqi5-mtAEQ cells, agonist mode, read-out: Ca2+-aequorin pEC50 ± SEM (converted); for Emax: read-out: Ca2+-aequorin Emax ± SEM
Protocol: The assay was performed with live CHO-hY4R-Gqi5-mtAEQ cells as previously described (used buffer: buffer III). Measurements were carried out on a Tecan Infinite Lumi plate reader. Data analysis was performed as reported using GraphPad Prism 5 for the calculation of the area under the curve. […] Efficacies Emax correspond to the upper plateaus of the normalized concentration–response curves.

hY1R = molecular target: T2, hY1R; assay: Y1R radioligand competition binding, whole SK-N-MC cells, [3H]UR-MK299; conditions: SK-N-MC neuroblastoma cells, [3H]UR-MK299 c = […]; read-out: pKi ± SEM hY1R (converted)
Protocol: as §1
Competition binding assays at Y1R-expressing SK-N-MC neuroblastoma cells were performed as previously described using [^3H]UR-MK299 as radioligand (concentration: 0.15 nM).[33] […] (logarithmic form in the case of pKi values).

hY2R = molecular target: T3, hY2R; assay: Y2R radioligand competition binding, whole CHO-hY2R cells, [3H]propionyl-pNPY; conditions: read-out: pKi ± SEM hY2R (converted)
Protocol: as §1

Y4R = Y4R (Homo sapiens, UniProt P50391); assay: Y4R miniGsi recruitment assay (HEK293T-NlucN-mGsi/Y4R-NlucC cells); format: cell-based; parameters: expressed in transfected cells; host or cells: HEK293T; conditions: read-out: miniGsi recruitment Emax ± SEM; note: relative to 1 µM hPP (100%)
Protocol: Furimazine was used as nanoluciferase substrate. The original stock was diluted 1:1000 in L15-HEPES to obtain the feed solution for the assay. Data analysis was performed based on the areas under the curves (time window: 45 min starting with the agonist addition) using GraphPad Prism 5. […] Efficacies Emax correspond to the upper plateaus of the normalized concentration–response curves.

[2] = Chemical stability in PBS pH 7.4; format: physicochemical
Protocol: The chemical stability of the fluorescent ligands 16, 17, and 18 was investigated in PBS (adjusted to pH 7.4) at 22 °C. […] After time periods of 0, 6, and 48 h, an aliquot (25 μL) was withdrawn and added to 25 μL of acetonitrile/0.04% aq. TFA 1:9 v/v to obtain a peptide solution with a concentration of 50 μM. 20 μL of this solution were subjected to analytical RP-HPLC analysis using the same system and conditions as described under Analytical HPLC, but applying a different linear gradient: 0–14 min: A/B 90:10–45:55, 14–15 min: 45:55–5:95, 15–19 min: 5:95 (isocratic). A 1:1 mixture of PBS and acetonitrile/0.04% aq. TFA 1:9 v/v (20 μL) was analyzed to obtain the blank chromatogram.

hY4R [3] = molecular target: T5, hY4R; parameters: expressed in transfected cells; host or cells: CHO (co-expressing Gqi5 and mitochondrially targeted aequorin); conditions: cited from earlier work
[4] = molecular target: T4, human neuropeptide Y Y2 receptor; assay: radioligand binding; competition with [^3H]propionyl-pNPY (0.5 nM) at intact CHO-hY2R cells, 23 ± 2 °C, buffer I (sodium-free); conditions: one partner purified
[5] = molecular target: human neuropeptide Y Y1 receptor (human) (UniProt P25929); assay: radioligand binding; competition with [^3H]UR-MK299 ([…]) at intact SK-N-MC cells, 23 ± 2 °C, buffer II (150 mM NaCl)
[6] = molecular target: T6, human neuropeptide Y Y4 receptor (wild-type, CHO-hY4R-Gqi5-mtAEQ cells) (human, UniProt P50391 1-375); assay: cell-based or functional assay
[7] = molecular target: human neuropeptide Y Y5 receptor (human) (UniProt Q15761); assay: radioligand binding; competition with [^3H]propionyl-pNPY (5 nM) at intact HEC-1B-hY5R cells, 23 ± 2 °C, buffer II (150 mM NaCl)
[8] = molecular target: T6, human neuropeptide Y Y4 receptor …; assay: flow cytometry on cells; association (0.7 nM 16, 1 nM 17, 0.5 nM 18) and dissociation (started with excess hPP and 5) at CHO-hY4R-Gqi5-mtAEQ cells, DPBS (137 mM Na^+), 22 ± 2 °C; monophasic and biphasic fits; Kd(kin) = koff/kon; conditions: one partner purified

Row | pKi [4] | pKi [5] | pKi [7] | kobs(bi,fast) [8] [min⁻¹] | kobs(bi,slow) [8] [min⁻¹] | kobs(mono) [8] [min⁻¹] | Molecule | Kd (hY4R [3]) [nM] | other results
1 |  |  |  |  |  |  | Cc1cc(/C=C/c2cc3c4c(c2)CCCN4CCC3)cc(C)[n+]1CCCC(=O)N[C@@H]1CC(=O)N[C@@H](CCCNC(=N)N)C(=O)N[C@@H](Cc2ccc(O)cc2)C(=O)N[C@H](C(=O)N[C@@H](CC(C)C)C(=O)N[C@@H](CCCNC(=N)N)C(=O)N[C@@H](Cc2ccc(O)cc2)C(N)=O)CCCNC(N)=NC(=O)NCCCCNC1=O [Compound 18] |  | Ki (hY5R; read-out: Ki hY5R (converted)): 840 nM; EC50 (hY4R [1]): 50.1 nM; Emax (hY4R [1]): 61 ± 5%; Ki (hY1R): > 1000 nM; Ki (hY2R): > 1000 nM; Emax (Y4R): 44 ± 2%; time with marginal degradation ([2]; PBS pH 7.4 (10% DMSO), room temperature): ≥ 6 h; chemical stability ([2]; PBS pH 7.4, room temperature, 48 h, 100 μM): slow decomposition
2 |  |  |  |  |  |  | 2: 5-TAMRA-labeled [K^18,Nle^17,30]hPP, reported Y4R fluorescent ligand [Compound 2] | 26 | 
3 |  |  |  |  |  |  | Sulfo-Cy5-[K^4]hPP: Sulfo-Cy5-labeled [K^4]hPP, reported fluorescent Y4R ligand (APLKPVYPGDNATPEQMAQYAADLRRYINMLTRPRY; not fully specified) | 5.6 | 
4 |  |  |  |  |  |  | C#CCCCCNC(=O)N=C(N)NCCC[C@@H]1NC(=O)CCC(=O)NCCCCNC(=O)N=C(N)NCCC[C@@H](C(=O)N[C@@H](CC(C)C)C(=O)N[C@@H](CCCNC(=N)N)C(=O)N[C@@H](Cc2ccc(O)cc2)C(N)=O)NC(=O)[C@H](Cc2ccc(O)cc2)NC1=O [Compound 11, (9S,12S,15S,E)-4-Amino-N-{(S)-1-[((S)-1-{[(S)-1-amino-3-(4-hydroxyphenyl)-1-oxopropan-2-yl]amino}-5-guanidino-1-oxopentan-2-yl)amino]-4-methyl-1-oxopentan-2-yl}-15-{3-[(E)-2-(hex-5-yn-1-ylcarbamoyl)guanidino]propyl}-12-(4-hydroxybenzyl)-2,11,14,17,20-pentaoxo-1,3,5,10,13,16,21-heptaazacyclopentacos-3-ene-9-carboxamide Tris(hydrotrifluoroacetate)] |  | Ki (hY5R; read-out: Ki hY5R (converted)): > 3000 nM; Ki (hY5R; read-out: pKi ± SEM hY5R (converted)): > 3160 nM; EC50 (hY4R [1]): 97.7 nM; Emax (hY4R [1]): 56 ± 3%; Ki (hY1R): > 10000 nM; Ki (hY2R): > 10000 nM; Emax (Y4R): 62 ± 1%
5 |  |  |  |  |  |  | 1: Sulfo-Cy5-labeled [K^4,Nle^17,30]hPP, reported Y4R fluorescent ligand [Compound 1] | 11 | 
6 | < 6 | < 6 | < 6 |  |  |  | RYRLRY (not fully specified; as 11; the alkyne of the carbamoylated arginine in position 1 joined by click chemistry (triazole) to the azido-functionalized pyridinium-type cyanine dye 15 (from Py-5); C-terminal amide, peptide chain as in 11, whose linear precursor 10 is printed in three-letter code at h-0020; 19 is made from 11 and dye 15; source: synthetic peptide: from 11 and the azido-functionalized dye 15 by copper(I)-catalyzed click reaction, preparative HPLC) [fluorescent ligand 19 (Py-5-labeled cyclic hexapeptide)] |  | EC50, Ca^2+-aequorin assay (CHO-hY4R-Gqi5-mtAEQ cells) [6]: 58 nM
7 | < 6 | < 6 | < 6 | 1.89 | 0.071 | 0.15 | RYRLRY-NH2 (also: Sulfo-Cy5 (S0223) conjugated to the amine of the cyclic precursor peptide 6, N^ω-carbamoylated arginine in the ring, position not given here, peptide part as in m6; structure drawn in Scheme 2; source: synthetic peptide: from precursor peptide 6 and the succinimidyl ester 13 (S0586) of Sulfo-Cy5 (S0223), preparative HPLC) [fluorescent ligand 17 (Sulfo-Cy5-labeled cyclic hexapeptide)] |  | 
8 | < 6 | < 6 | 6.08 | 0.7 | 0.034 | 0.1 | RYRLRY-NH2 (also: Py-1 cyanine dye on the amine of a carbamoylated Arg in the ring, position not given here, cyclic, ring closure not given here, peptide part as in m6; structure drawn in Scheme 2; source: synthetic peptide: from precursor peptide 6 and the pyrylium dye Py-1 (14), preparative HPLC) [fluorescent ligand 18 (Py-1-labeled cyclic hexapeptide)] |  | 
9 | < 6 | 6.91 | 6.32 | 1 | 0.048 | 0.18 | RYRLRY-NH2 (not fully specified (bridges); also: Cy3B conjugated to the amine of the cyclic precursor peptide 6, N^ω-carbamoylated arginine in the ring, position not given here, structure drawn in Scheme 2; source: synthetic peptide: from precursor peptide 6 and Cy3B succinimidyl ester (12), preparative HPLC) [fluorescent ligand 16 (Cy3B-labeled cyclic hexapeptide)] |  | 
